For two substances, fold β-galactosidase activity over the B3 domain with SPA and fold β-galactosidase activity over AD-FUSCA3* with BD-SPA results are on record in PMC5487486.

The target of assay [1] is TaFUSCA3 N-terminal region (1st to 60th amino acids) (Triticum aestivum). The experiment in a line: two-hybrid; Gal4 system (pGADT7 and pGBKT7), yeast strain Y187, read out by growth and β-galactosidase (LacZ) activity, three replicates.
Assay [2] has as its target TaSPA (Triticum aestivum). The assay is described as above.

Chain of TaSPA (Triticum aestivum) (Q7X9A8 whole entry): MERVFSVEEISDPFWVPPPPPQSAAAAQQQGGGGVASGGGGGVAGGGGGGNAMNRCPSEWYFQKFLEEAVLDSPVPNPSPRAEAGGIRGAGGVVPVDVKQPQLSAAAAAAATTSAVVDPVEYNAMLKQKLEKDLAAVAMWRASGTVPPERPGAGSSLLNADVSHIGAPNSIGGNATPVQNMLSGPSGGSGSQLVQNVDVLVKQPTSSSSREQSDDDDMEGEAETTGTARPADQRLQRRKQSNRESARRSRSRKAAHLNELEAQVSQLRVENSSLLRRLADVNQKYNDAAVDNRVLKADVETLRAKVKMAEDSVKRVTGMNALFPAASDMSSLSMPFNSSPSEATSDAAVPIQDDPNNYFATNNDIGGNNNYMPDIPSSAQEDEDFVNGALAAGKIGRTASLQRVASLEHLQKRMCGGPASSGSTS

The substance “TaSPA (from UniProt Q7X9A8 1-425) (natural protein)” gave a fold β-galactosidase activity over the B3 domain with SPA in assay [1] of 4 fold. In assay [2], TaFUSCA3 (natural protein) had a fold β-galactosidase activity over AD-FUSCA3* with BD-SPA of 2 fold.
